Test [1] concerns the target Fc-tagged WT perlecan DII from WT CHO cells (UniProt P98160). Briefly: pull-down; Fc-tagged proteins on protein-A agarose incubated with human ApoB-100 (5 μg); 20 mM HEPES pH 6.0, 10 mM NaCl, 1% BSA ('optimal binding condition'), room temperature 1 h; blot with anti-ApoB antibody, quantified from three experiments.
For test [2], the target named is Fc-tagged perlecan DI+II from WT CHO cells (UniProt P98160). Described as above.
The target of test [3] is Fc-tagged WT perlecan DII from WT CHO cells (UniProt P98160). As to the kind of experiment: radioligand binding; stable WT CHO cell lines expressing Fc or Fc-tagged proteins, binding of [I^125]labeled LDL (supplementary Fig. 3).
The target in test [4] is Fc-tagged perlecan DI from WT CHO cells (UniProt P98160). The test is described as above.
The target in test [5] is Fc-tagged perlecan DI+II from WT CHO cells (UniProt P98160). The test is described as above.
Test [6] addresses Fc-tagged secreted perlecan DII (sDII), as purified in Fig. 1D. As to the kind of experiment: in vitro saturation binding analysis; sDII 10.0 pM with increasing LDL (supplementary Fig. 1); further conditions not shown.
Test [7] deals with sialidase C-treated Fc-tagged WT perlecan DII. Briefly: pull-down; Fc-tagged proteins on protein-A agarose incubated with human LDL (10 μg in Fig. 1E/F with 500 ng protein; 1.5 μg in Fig. 5D); 20 mM HEPES pH 6.0, 10 mM NaCl, 1% BSA, room temperature 1 h; blot with anti-LDL or anti-ApoB antibody.

Chain of human ApoB-100 (P04114 28-4563): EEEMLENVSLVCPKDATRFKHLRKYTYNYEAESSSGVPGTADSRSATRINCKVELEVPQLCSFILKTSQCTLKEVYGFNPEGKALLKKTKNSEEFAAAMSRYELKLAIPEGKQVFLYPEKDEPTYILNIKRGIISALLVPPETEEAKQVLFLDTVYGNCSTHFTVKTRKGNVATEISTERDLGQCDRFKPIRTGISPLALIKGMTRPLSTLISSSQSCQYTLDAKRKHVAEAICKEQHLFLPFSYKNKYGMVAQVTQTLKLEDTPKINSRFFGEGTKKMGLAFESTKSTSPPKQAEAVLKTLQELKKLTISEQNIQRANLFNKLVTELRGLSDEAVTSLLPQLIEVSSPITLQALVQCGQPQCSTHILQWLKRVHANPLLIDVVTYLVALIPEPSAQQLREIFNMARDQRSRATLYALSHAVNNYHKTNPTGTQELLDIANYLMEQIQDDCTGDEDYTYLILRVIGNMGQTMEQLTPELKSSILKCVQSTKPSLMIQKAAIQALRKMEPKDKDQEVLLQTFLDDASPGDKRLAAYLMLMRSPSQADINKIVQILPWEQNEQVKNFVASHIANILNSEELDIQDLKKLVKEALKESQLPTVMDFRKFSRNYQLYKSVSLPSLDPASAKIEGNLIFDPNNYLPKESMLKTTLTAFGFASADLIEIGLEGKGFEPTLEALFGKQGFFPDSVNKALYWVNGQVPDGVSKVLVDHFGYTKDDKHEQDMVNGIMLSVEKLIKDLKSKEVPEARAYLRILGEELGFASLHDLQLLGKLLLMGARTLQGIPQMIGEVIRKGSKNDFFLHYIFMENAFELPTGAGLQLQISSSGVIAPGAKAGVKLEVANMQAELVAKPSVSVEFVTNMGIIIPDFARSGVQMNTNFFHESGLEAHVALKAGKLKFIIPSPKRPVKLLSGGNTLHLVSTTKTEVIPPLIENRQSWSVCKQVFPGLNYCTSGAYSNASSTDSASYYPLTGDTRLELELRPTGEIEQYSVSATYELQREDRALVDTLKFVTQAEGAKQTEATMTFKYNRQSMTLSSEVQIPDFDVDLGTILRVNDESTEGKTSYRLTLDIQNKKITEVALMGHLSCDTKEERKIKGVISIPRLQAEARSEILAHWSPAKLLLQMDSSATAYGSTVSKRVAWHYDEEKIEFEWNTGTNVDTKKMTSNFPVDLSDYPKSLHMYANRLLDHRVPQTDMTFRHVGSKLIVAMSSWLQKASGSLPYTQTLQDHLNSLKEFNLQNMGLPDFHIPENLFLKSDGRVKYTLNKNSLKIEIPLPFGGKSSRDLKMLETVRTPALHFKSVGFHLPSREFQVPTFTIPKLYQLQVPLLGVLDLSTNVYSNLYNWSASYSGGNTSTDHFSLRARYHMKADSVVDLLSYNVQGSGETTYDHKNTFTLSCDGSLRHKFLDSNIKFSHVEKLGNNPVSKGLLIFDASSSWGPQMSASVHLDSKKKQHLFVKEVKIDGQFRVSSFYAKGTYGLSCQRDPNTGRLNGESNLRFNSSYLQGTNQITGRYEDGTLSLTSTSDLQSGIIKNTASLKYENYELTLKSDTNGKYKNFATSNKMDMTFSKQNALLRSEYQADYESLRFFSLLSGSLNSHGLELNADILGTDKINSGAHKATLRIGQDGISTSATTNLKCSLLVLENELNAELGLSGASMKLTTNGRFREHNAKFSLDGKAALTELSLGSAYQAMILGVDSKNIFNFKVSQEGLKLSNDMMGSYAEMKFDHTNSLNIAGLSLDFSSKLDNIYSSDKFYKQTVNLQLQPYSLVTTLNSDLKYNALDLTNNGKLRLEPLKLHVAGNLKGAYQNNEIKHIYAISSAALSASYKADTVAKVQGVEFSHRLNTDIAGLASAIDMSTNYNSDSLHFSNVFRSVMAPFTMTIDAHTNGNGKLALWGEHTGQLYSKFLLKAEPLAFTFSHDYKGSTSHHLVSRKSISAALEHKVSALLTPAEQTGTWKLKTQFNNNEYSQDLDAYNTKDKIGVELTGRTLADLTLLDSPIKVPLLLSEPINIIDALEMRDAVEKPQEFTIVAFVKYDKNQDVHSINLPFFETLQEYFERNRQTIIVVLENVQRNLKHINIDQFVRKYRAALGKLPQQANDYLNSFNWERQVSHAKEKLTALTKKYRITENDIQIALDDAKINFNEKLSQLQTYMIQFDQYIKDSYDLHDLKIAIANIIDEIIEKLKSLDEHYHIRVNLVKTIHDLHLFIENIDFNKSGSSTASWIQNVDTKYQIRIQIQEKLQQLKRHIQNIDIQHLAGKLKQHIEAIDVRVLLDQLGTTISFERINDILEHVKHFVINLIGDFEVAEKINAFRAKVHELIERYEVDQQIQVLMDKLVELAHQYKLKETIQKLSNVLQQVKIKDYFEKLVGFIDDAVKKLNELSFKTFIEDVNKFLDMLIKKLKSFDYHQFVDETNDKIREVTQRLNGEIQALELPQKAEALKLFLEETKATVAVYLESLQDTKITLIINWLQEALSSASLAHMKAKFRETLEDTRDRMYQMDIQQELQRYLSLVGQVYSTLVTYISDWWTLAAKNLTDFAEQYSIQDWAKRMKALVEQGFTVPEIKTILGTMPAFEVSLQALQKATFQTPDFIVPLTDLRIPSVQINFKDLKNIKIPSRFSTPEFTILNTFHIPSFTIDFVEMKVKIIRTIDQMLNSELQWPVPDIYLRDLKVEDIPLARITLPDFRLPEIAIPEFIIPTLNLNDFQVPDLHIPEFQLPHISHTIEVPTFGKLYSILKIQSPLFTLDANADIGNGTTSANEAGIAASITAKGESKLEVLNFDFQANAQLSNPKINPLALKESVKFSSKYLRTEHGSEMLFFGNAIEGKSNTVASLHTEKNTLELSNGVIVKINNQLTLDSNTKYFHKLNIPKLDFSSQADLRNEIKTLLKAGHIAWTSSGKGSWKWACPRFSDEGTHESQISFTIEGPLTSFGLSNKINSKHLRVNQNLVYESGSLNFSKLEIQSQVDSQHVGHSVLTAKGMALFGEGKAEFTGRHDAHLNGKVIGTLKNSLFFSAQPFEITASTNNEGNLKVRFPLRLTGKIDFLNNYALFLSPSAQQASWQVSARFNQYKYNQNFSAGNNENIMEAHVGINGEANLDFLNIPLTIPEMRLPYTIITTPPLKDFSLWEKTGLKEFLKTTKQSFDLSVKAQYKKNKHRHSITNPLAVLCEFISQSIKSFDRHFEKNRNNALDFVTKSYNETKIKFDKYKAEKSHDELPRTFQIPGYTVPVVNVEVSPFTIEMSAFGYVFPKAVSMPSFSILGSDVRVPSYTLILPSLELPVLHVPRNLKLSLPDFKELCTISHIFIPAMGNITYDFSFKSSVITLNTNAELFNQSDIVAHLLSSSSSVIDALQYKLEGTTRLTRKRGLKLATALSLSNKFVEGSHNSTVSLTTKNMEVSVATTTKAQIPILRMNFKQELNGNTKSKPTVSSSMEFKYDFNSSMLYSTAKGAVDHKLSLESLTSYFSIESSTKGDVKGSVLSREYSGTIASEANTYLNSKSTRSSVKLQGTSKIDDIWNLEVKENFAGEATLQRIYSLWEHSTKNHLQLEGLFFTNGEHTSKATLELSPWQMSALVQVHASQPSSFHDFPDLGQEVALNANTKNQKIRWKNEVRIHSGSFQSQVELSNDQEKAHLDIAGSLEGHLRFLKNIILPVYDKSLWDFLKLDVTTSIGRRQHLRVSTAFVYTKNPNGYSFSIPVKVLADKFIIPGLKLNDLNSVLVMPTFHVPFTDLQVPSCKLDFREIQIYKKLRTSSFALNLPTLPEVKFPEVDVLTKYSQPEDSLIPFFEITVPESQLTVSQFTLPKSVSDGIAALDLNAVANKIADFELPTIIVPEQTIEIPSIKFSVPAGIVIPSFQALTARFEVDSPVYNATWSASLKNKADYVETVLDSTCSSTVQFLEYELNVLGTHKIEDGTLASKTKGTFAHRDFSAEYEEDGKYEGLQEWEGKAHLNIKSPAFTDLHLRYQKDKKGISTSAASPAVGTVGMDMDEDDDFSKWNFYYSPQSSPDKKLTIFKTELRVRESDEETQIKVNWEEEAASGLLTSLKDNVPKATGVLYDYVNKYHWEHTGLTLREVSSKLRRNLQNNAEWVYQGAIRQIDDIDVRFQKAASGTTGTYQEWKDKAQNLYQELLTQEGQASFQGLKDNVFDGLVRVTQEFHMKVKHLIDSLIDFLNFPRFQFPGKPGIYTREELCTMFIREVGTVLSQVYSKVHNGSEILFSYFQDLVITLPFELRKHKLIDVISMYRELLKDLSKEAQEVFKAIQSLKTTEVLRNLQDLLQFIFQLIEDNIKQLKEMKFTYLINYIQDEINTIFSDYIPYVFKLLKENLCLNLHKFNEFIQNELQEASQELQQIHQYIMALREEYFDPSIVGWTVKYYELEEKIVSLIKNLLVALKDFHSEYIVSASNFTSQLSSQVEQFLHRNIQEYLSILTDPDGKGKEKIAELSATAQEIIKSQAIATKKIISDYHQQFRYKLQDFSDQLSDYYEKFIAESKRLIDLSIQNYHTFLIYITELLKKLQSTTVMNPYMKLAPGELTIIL

Substance “human ApoB-100 (from UniProt P04114 28-4563) (natural protein)” showed a percent increase of binding over WT DI in test [1] of 24%. In test [2], this substance registered a percent increase of binding over DI alone of 90% and a percent increase of binding over WT DII of 53%.

Take [I^125]labeled LDL (complex): the percent increase of [I^125]LDL binding to cells in test [3] was 31%; in test [4] it was 26%; in test [5], 43%.

In test [6], human LDL (complex) registered an LDL concentration at which binding to sDII (10.0 pM) became saturated of 16.3 pM. The percent reduction of binding against mock-treated WT DII in test [7] came to 50%.
